What was measured:
[1] = biological target: T1, STAU (Genbank ID: AF061939) (human, UniProt O95793 6-577); experiment: Y2H 1x1 mating, binder AD fusion, target BD fusion
T1 construct: range 6-578; Prey from brain library; also called Staufen
T1 sequence (looked up): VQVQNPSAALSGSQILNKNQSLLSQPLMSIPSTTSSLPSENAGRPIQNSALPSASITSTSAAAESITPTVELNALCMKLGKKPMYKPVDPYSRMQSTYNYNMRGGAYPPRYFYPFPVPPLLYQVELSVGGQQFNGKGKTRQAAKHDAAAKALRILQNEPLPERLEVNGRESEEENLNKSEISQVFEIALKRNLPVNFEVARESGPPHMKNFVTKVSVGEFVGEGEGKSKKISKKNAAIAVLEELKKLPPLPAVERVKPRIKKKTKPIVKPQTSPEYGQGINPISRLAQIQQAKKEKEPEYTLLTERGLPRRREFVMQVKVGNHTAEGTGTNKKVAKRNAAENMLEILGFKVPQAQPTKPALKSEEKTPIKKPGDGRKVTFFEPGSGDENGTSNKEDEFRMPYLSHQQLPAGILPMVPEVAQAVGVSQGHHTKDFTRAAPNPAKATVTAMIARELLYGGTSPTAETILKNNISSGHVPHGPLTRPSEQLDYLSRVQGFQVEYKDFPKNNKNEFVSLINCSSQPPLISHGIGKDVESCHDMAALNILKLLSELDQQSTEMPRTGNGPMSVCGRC

[2] = biological target: the molecule itself; experiment: Y2H 1x1 mating, binder AD fusion, target BD fusion
[3] = biological target: T2, S100A9 (Genbank ID: M26311) (human, UniProt P06702 1-114); experiment: Y2H 1x1 mating, binder AD fusion, target BD fusion
T2 construct: range 1-114; Prey from liver and muscle libraries
T2 sequence (looked up): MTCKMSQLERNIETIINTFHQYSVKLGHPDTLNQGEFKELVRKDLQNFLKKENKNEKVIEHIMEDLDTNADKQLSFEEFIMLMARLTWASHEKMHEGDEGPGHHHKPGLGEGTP

[4] = biological target: S100A6 (Genbank ID: M14300) (human, UniProt P06703 1-90); experiment: Y2H 1x1 mating, binder AD fusion, target BD fusion
[5] = biological target: the molecule itself; experiment: Y2H, baits tested against each other
S100B-1 = biological target: T3, S100B-1 (human, UniProt P04271 1-92); experiment: Y2H, baits tested against each other
T3 construct: Full-length bait; also called full length S100B
T3 sequence (looked up): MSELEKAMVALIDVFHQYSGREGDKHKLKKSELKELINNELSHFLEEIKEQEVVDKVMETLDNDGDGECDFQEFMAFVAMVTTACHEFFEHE

S100A1-1 = biological target: T4, S100A1-1 (human, UniProt P23297 1-94); experiment: Y2H, baits tested against each other
T4 construct: Full-length bait; also called full length S100A1
T4 sequence (looked up): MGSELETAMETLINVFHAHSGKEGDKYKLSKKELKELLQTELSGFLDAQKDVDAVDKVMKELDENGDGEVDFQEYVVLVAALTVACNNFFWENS

Measured: binding result

B1: PPP1R5 (Genbank ID: Y18207) (other, human, UniProt Q9UQK1 1-317, looked up)
chain: MSCTRMIQVLDPRPLTSSVMPVDVAMRLCLAHSPPVKSFLGPYDEFQRRHFVNKLKPLKSCLNIKHKAKSQNDWKCSHNQAKKRVVFADSKGLSLTAIHVFSDLPEEPAWDLQFDLLDLNDISSALKHHEEKNLILDFPQPSTDYLSFRSHFQKNFVCLENCSLQERTVTGTVKVKNVSFEKKVQIRITFDSWKNYTDVDCVYMKNVYGGTDSDTFSFAIDLPPVIPTEQKIEFCISYHANGQVFWDNNDGQNYRIVHVQWKPDGVQTQMAPQDCAFHQTSPKTELESTIFGSPRLASGLFPEWQSWGRMENLASYR
notes: Prey from brain, liver and muscle libraries
no binding: [1] | [2]

B2: S100B-2 (other, human, UniProt P04271 1-62, looked up)
chain: MSELEKAMVALIDVFHQYSGREGDKHKLKKSELKELINNELSHFLEEIKEQEVVDKVMETLD
notes: Truncated bait; also called truncated S100B
not listed: [1] | [2]
no binding: all other assays above

From patent US20030157554A1 (published 2003)
